{"source": "paper PMC11717252", "about": "“Biophysical and biochemical evidence for the role of acetate kinases (AckAs) in an acetogenic pathway in pathogenic spirochetes” (PLOS ONE, 2025)", "molecules": {"B1": {"name": "TP0476, acetate kinase from Treponema pallidum (enzyme, UniProt O83489 1-448, looked up)", "chain": "MIILTLNCGSSSVKYQVYNWTERAVIAVGVVERVTQAGSVITHEVHGRENHVRESPCPTHTEAVQLIISTLTDAHVGVISDMSLIKAVGHRVLHAADRFVKSVVVTPDVLETFRSVQDLGPLHNPANIRGIEAAQAVIPSVPHCAIMDTAWHQTMPEASFMYAVPRQWYEEYAVRRYGFHGTSFLYTAKRASVILKKRAEDTNIIIAHIGNGASMCCVKNGVSFDTSMGITPLEGLIMGTRCGDCDPALAFYIMRKTGMSVSDIDTTLNKQSGLLGITGKYVDRRDVCAAMKNGDALARLAFDMEVHRIRKYFGAYVAALGKQPDALVFTAGVGEMCCDVRAAACAGLEHLGIRLDARKNELARTRNAETEISTDDSPVRILVIPTDEELVMTEDTYALMQGTYDVHTRFTYSFQDPTYVNKARAAGLKRDLEKNPALATIVVPRLDT", "notes": "Acetate kinase TP0476 of Treponema pallidum, amino acid residues 1-448; The dominant species is a dimer; monomer, trimer, tetramer and aggregates were also seen; also called rTP0476; TpAckA"}, "B2": {"name": "TV0924 (TREVI0001_0924; rTV0924; TvAckA) (Treponema vincentii ATCC 35580) (protein)", "chain": "MVILTLNCGSSSVKYQVYDWDNHSVLASGVVERVTQPGSVITHEAKGKDKYVLESPCPSHTHAVELIIKTLTDPSVGVITDMNVIKAVGHRVTHGGDKFIKSVIVTPEILNTFREVQDLGPLHNPANIMGIEAAQKVLPNVPHCAIIDTAWHQTMPETSFMYAIPHEWYEKYSARRYGFHGTSFLYTAKRAAVILGKKPEDTNIIIAHIGNGASMCCVKQGKCFDTSMGLTPLEGLVMGTRSGDCDPALPFYIMRKTGMTPAEMDTALNKKSGLLGVTGQYVDRRDVSKAMGEGDKRARLAFNMEVYRLQKYFGAYIAALGQKPDAIVFTAGVGEFGFDTRLAVCEGLTHLGIKIDPKKNALARTRNAETCISADDSPVKIFVIPTDEELVMTEDAYALMKGTYDVHTKFTYSFQSPDYVNKARAEGLKKDLEKKPELASIVVKIPGAR", "notes": "homodimer, calculated dimer mass 104,820 g/mol"}}, "key": {"[1]": {"target": "TV0924 (TREVI0001_0924), acetate kinase from Treponema vincentii (Treponema vincentii)", "experiment": "mass photometry; TwoMP (Refeyn), sample diluted in PBS, ca. 10 nM in the droplet, 60-s movie; self-association"}, "[2]": {"target": "TV0924 (TREVI0001_0924), acetate kinase from Treponema vincentii (Treponema vincentii)", "experiment": "AUC; sedimentation velocity, 20°C, Buffer A (20 mM HEPES, 0.1 M NaCl, pH 7.5, 2 mM n-octyl-β-D-glucopyranoside), 50,000 rpm, absorbance at 280 nm, c(s) analysis in SEDFIT; self-association"}, "[3]": {"target": "T1, TV0924 (TREVI0001_0924; rTV0924; TvAckA) (Treponema vincentii, UniProt C8PR54)", "T1 construct": "gene ackA; homodimer, calculated dimer mass 104,820 g/mol", "T1 sequence (C8PR54 1-449)": "B2 chain", "experiment": "X-ray crystal structure, […] Å", "assay_type": "binding", "details": "active site; co-crystallised with 5 mM ADP and 5 mM MgCl2, pH 5.5; modelled as AMP, may be hydrolysed ADP or ADP with disordered beta-phosphate"}, "purified protein [4]": {"substrate": "CC(=O)OP(=O)(O)O", "experiment": "purified protein", "assay_type": "biochemical, Treponema pallidum", "details": "ATP-forming direction, ADP up to 5 mM, 20 mM MgCl2, 100 mM HEPES pH 7.5, 100 mM NaCl, 37 °C"}, "purified protein [5]": {"substrate": "Nc1ncnc2c1ncn2[C@@H]1O[C@H](COP(=O)(O)OP(=O)(O)O)[C@@H](O)[C@H]1O", "experiment": "purified protein", "assay_type": "biochemical, Treponema pallidum", "details": "ATP-forming direction, acetyl phosphate up to 10 mM, 20 mM MgCl2, 100 mM HEPES pH 7.5, 100 mM NaCl, 37 °C"}, "[6]": {"target": "the molecule itself", "experiment": "mass photometry; TwoMP (Refeyn), sample diluted in PBS, ca. 10 nM in the droplet, 60-s movie; self-association"}, "[7]": {"target": "the molecule itself", "experiment": "AUC; sedimentation velocity, 20°C, Buffer A (20 mM HEPES, 0.1 M NaCl, pH 7.5, 2 mM n-octyl-β-D-glucopyranoside), 50,000 rpm, absorbance at 280 nm, c(s) analysis in SEDFIT; self-association"}, "purified protein [8]": {"substrate": "CC(=O)OP(=O)(O)O", "experiment": "purified protein", "assay_type": "biochemical, Treponema vincentii", "details": "ATP-forming direction, ADP up to 5 mM, 20 mM MgCl2, 100 mM HEPES pH 7.5, 100 mM NaCl, 37 °C"}, "purified protein [9]": {"substrate": "Nc1ncnc2c1ncn2[C@@H]1O[C@H](COP(=O)(O)OP(=O)(O)O)[C@@H](O)[C@H]1O", "experiment": "purified protein", "assay_type": "biochemical, Treponema vincentii", "details": "ATP-forming direction, acetyl phosphate up to 10 mM, 20 mM MgCl2, 100 mM HEPES pH 7.5, 100 mM NaCl, 37 °C"}}, "note": "Where “and” joins values, the source holds several entries; their conditions need not be identical. Equal values may be shown once.", "data": [{"molecule": "TV0924 (TREVI0001_0924), acetate kinase from Treponema vincentii (enzyme)", "values": [{"measurement": "stoichiometry N", "setting": "[1]", "value": 2}, {"measurement": "stoichiometry N", "setting": "[2]", "value": 2}]}, {"molecule": "Nc1ncnc2c1ncn2[C@@H]1O[C@H](COP(=O)(O)O)[C@@H](O)[C@H]1O", "note": "[AMP]", "values": [{"measurement": "X-ray crystal structure, 1.30 Å", "setting": "[3]", "value": "The nucleotide was modeled as AMP, and we refer to this structure below as TV0924‧AMP."}]}, {"molecule": "B1", "values": [{"measurement": "Km", "setting": "purified protein [4]", "value": "0.380 ± 0.019", "unit": "mM"}, {"measurement": "kcat", "setting": "purified protein [4]", "value": "51.5 ± 0.8", "unit": "s⁻¹"}, {"measurement": "kcat/Km", "setting": "purified protein [4]", "value": "137000 ± 11000", "unit": "M⁻¹ s⁻¹"}, {"measurement": "Km", "setting": "purified protein [5]", "value": "0.65 ± 0.07", "unit": "mM"}, {"measurement": "kcat", "setting": "purified protein [5]", "value": "63.3 ± 1.5", "unit": "s⁻¹"}, {"measurement": "kcat/Km", "setting": "purified protein [5]", "value": "90000 ± 10000", "unit": "M⁻¹ s⁻¹"}, {"measurement": "stoichiometry N", "setting": "[6]", "value": "3 and 4"}, {"measurement": "stoichiometry N", "setting": "[7]", "value": 2}]}, {"molecule": "B2", "values": [{"measurement": "Km", "setting": "purified protein [8]", "value": "0.32 ± 0.03", "unit": "mM"}, {"measurement": "kcat", "setting": "purified protein [8]", "value": "3900 ± 300", "unit": "s⁻¹"}, {"measurement": "kcat/Km", "setting": "purified protein [8]", "value": "1.19e+07 ± 400000", "unit": "M⁻¹ s⁻¹"}, {"measurement": "Km", "setting": "purified protein [9]", "value": "0.65 ± 0.03", "unit": "mM"}, {"measurement": "kcat", "setting": "purified protein [9]", "value": "4800 ± 400", "unit": "s⁻¹"}, {"measurement": "kcat/Km", "setting": "purified protein [9]", "value": "7.5e+06 ± 400000", "unit": "M⁻¹ s⁻¹"}]}]}
